Measurements: US20250361274A1, “PEPTIDE AND PEPTIDE-CONTAINING AGENT” (PEPTIDREAM INC., priority 2022, published 2025)
Numbered stars: 1 amine (or outer) side, 2 acyl side, 3 side chain; on linkers, the order of the positions; unused ones are H or OH. Bridge positions count the residues as written; N and C are the ends. Square brackets hold non-standard residues; d marks the D form. Side chains are listed from the residue outwards. Ends that are not written are not given here. Peptide text beside a SMILES is read from it. I, II: the chains in the order shown. * marks the point of attachment. ξ: configuration not given here. KCOpipzaa = N6-(4-(carboxymethyl)piperazine-1-carbonyl)-L-lysine, O=C(NCCCC[C@H](N[*:1])C(=O)[*:2])N1CCN(CC(=O)[*:3])CC1; Bph3C = (S)-2-amino-3-(3'-chloro-[1,1'-biphenyl]-4-yl)propanoic acid, O=C([C@H](Cc1ccc(-c2cccc(Cl)c2)cc1)N[*:1])[*:2]; Cha4tH = (S)-2-amino-3-((1r,4S)-4-hydroxycyclohexyl)propanoic acid, O=C([C@H](C[C@H]1CC[C@H](O[*:3])CC1)N[*:1])[*:2]; X10 = N=C(N)NCCC[C@H](CC(=O)[C@H](CCCCNC(=O)N1CCN(CC(=O)O)CC1)N[*:2])C(=O)[*:1]; X9 = O=C([C@H](Cc1ccc(-c2cccc(F)c2)cc1)N[*:1])[*:2]; 3Pal(6-Ph) = N[C@@H](Cc1ccc(-c2ccccc2)nc1)C(=O)O; Phe(4-COOH) = N[C@@H](Cc1ccc(C(=O)O)cc1)C(=O)O; NMePhe(3-Cl) = CN[C@@H](Cc1cccc(Cl)c1)C(=O)O; Piperazinyl(4-CH2COOH) = O=C(O)CN1CCN(*)CC1; Bip = N[C@@H](Cc1ccc(-c2ccccc2)cc1)C(=O)O; Gly(4-THP) = N[C@H](C(=O)O)C1CCOCC1; Hyp = O=C(O)[C@@H]1C[C@@H](O)CN1; NMeF = CN[C@@H](Cc1ccccc1)C(=O)O; 4Pal = N[C@@H](Cc1ccncc1)C(=O)O; Cha = N[C@@H](CC1CCCCC1)C(=O)O; Ahp(2) = CCCCC[C@H](N)C(=O)O; Abu = CC[C@H](N)C(=O)O; X5 = O=C(C[*:1])[*:2]; CO = O=C([*:1])[*:2]; ξC = NC(CS)C(=O)O; βAla = NCCC(=O)O

Assays:
[1] = target: T1, BMP7 (Homo sapiens, UniProt P18075); assay: BMP7 signal transduction inhibitory activity: SMAD1 phosphorylation by BMP7 stimulus, A549 cells; assay type: cell-based; conditions: for aLISA BMP7: A549 cells, peptides of Synthesis 2
T1 sequence (P18075 293-431): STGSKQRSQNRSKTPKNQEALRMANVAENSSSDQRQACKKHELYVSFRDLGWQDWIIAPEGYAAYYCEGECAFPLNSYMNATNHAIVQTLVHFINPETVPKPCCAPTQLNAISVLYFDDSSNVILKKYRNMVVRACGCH
Method in brief: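 Inhibition is read as reduced BMP7-driven SMAD1 phosphorylation in human A549 cells, with the BMP7 stimulus at 10 nM. Three-point peptide concentrations spanned 1–1,000 nM depending on the peptide series. Some peptides received eight-point, 1/3-ratio titrations from 100 nM or 1,000 nM, alongside a Noggin control.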

[2] = target: T2, BMP4 (Homo sapiens, UniProt P12644); assay: BMP4 signal transduction inhibitory activity: SMAD1 phosphorylation by BMP4 stimulus, AlphaLISA SureFire, A549 cells; assay type: cell-based; conditions: for aLISA BMP4: A549 cells, peptides of Synthesis 2
T2 sequence (P12644 293-408): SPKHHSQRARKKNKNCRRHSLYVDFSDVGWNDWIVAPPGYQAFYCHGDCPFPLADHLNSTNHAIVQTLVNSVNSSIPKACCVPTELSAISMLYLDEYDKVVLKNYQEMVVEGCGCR

[3] = BMP7 10 nM stimulus, peptide conc. in assay 10, 100, 1000 nM, class symbols
[4] = BMP4 0.2 nM stimulus, peptide conc. in assay 0.02, 0.2, 2 nM, class symbols
[5] = SMAD1 phosphorylation, BMP7 10 nM, peptide conc. in assay 1, 10, 100 nM
[6] = SMAD1 phosphorylation, BMP4 0.2 nM, peptide conc. in assay 0.2, 2, 20 nM
[7] = BMP7 10 nM stimulus, peptide conc. in assay 10, 30, 90 nM
[8] = BMP4 0.2 nM stimulus, peptide conc. in assay 2, 20, 200 nM
[9] = inhibition of SMAD1 phosphorylation by BMP7 stimulus, classes A-D, ND
[10] = inhibition of SMAD1 phosphorylation by BMP4 stimulus, classes A-C, ND
[11] = BMP7 10 nM stimulus, peptide conc. in assay 100, 300, 1000 nM, class symbols
[12] = 10 nM BMP7, peptide 1, 10, 100 nM
[13] = SMAD1 phosphorylation, peptide 0.02, 0.2, 2 nM

303 (ERV[Phe(4-COOH)]V[KCOpipzaa]R[Bph3C][KCOpipzaa]Y[Hyp][Bip]Y[Phe(4-COOH)][Phe(4-COOH)]SCG-NH2; not fully specified (N-terminus, bridges); also: cyclic peptide, ring closure not given here) [compound 303]
aLIZA BMP7 (10 nM) % inh [1, 3]: E (showed less than 30% of inhibitory activity in 100 nM-addition zone and showed 30% or more of inhibitory activity in 1,000 nM-addition zone) | aLIZA BMP4 (0.2 nM) % inh [2, 4]: C (showed less than 30% of inhibitory activity in 0.2 nM-addition zone and showed 30% or more of inhibitory activity in 2 nM-addition zone)

328 (FG[NMeF]G[3Pal(6-Ph)]GDD[Cha]A[NMeF]LHCG-NH2; not fully specified (N-terminus, bridges)) [compound 328]
aLISA BMP7 (10 nM) % inh [1, 5]: D (showed less than 30% of inhibitory activity in 10 nM-addition zone and showed 30% or more of inhibitory activity in 100 nM-addition zone) | aLISA BMP4 (0.2 nM) % inh [2, 6]: ND (the inhibitory activity was less than 30% at the maximum concentration evaluated)

365 (FG[NMeF]G[Bip]GDE[Cha][Abu][NMeF]LHCG-NH2; not fully specified (N-terminus, bridges)) [compound 365]
aLISA BMP7 (10 nM) % inh [1, 5]: D (showed less than 30% of inhibitory activity in 10 nM-addition zone and showed 30% or more of inhibitory activity in 100 nM-addition zone) | aLISA BMP4 (0.2 nM) % inh [2, 6]: ND (the inhibitory activity was less than 30% at the maximum concentration evaluated)

384 (FG[NMePhe(3-Cl)]G[Bip]GDD[Cha]A[NMeF]LHCG-NH2; not fully specified) [compound 384]
aLISA BMP7 (10 nM) % inh [1, 7]: E (showed 30% or more of inhibitory activity in 10 nM-addition zone) | aLISA BMP4 (0.2 nM) % inh [2, 8]: B (showed less than 30% of inhibitory activity in 20 nM-addition zone and showed 30% or more of inhibitory activity in 200 nM-addition zone)

319 (ERV[Phe(4-COOH)][Cha4tH][KCOpipzaa]R[3Pal(6-Ph)][KCOpipzaa]Y[Hyp][Bph3C]Y[Phe(4-COOH)][Phe(4-COOH)]SCG-NH2; not fully specified) [compound 319]
aLIZA BMP7 (10 nM) % inh ([1]; BMP7 10 nM, peptide 10, 100, 1000 nM, Table 6): D (showed less than 30% of inhibitory activity in a zone to which the peptide was added in an amount of 10 nM and showed 30% or more of inhibitory activity in 100 nM-addition zone) | aLIZA BMP4 (0.2 nM) % inh ([2]; BMP4 0.2 nM, peptide 0.02, 0.2, 2 nM, Table 6): B (showed less than 30% of inhibitory activity in 0.02 nM-addition zone and showed 30% or more of inhibitory activity in 0.2 nM-addition zone)

345 (FG[NMeF]G[Bip]GDD[Cha]A[NMeF][Ahp(2)]HCG-NH2; not fully specified (N-terminus, bridges)) [compound 345]
aLISA BMP7 (10 nM) % inh [1, 5]: D (showed less than 30% of inhibitory activity in 10 nM-addition zone and showed 30% or more of inhibitory activity in 100 nM-addition zone) | aLISA BMP4 (0.2 nM) % inh [2, 6]: A (showed less than 30% of inhibitory activity in 2 nM-peptide-addition zone and showed 30% or more of inhibitory activity in 20 nM-addition zone)

96 ({CH2CO}-ERVYVDR[3Pal(6-Ph)]SYP[Bip]Y[Phe(4-COOH)][Phe(4-COOH)]SC[βAla][dE]-OH; thioether N-17; not fully specified) [compound 96]
aLISA BMP7 [1, 9]: C (showed less than 50% of inhibitory activity in 10 nM-addition zone and showed 50% or more of inhibitory activity in 100 nM-addition zone) | aLISA BMP4 [2, 10]: A (showed an inhibitory activity of 50% or more in a zone to which the peptide was added to in an amount of 0.2 nM)

122 ({CH2CO}-ERV[Phe(4-COOH)]V[KCOpipzaa]R[Bip]PYP[Bip]Y[Phe(4-COOH)][Phe(4-COOH)]SC[βAla][dE]-OH; thioether N-17; not fully specified) [compound 122]
aLISA BMP7 [1, 9]: C (showed less than 50% of inhibitory activity in 10 nM-addition zone and showed 50% or more of inhibitory activity in 100 nM-addition zone) | aLISA BMP4 [2, 10]: A (showed an inhibitory activity of 50% or more in a zone to which the peptide was added to in an amount of 0.2 nM)

245 (LRVYVDR[3Pal(6-Ph)]SYV[Bip]Y[Phe(4-COOH)][Phe(4-COOH)]SCG) [compound 245]
aLIZA BMP7 (10 nM) % Inh ([1]; SMAD1 phosphorylation by BMP7 stimulus, peptide conc. in assay 10, 100, 1000 nM, class symbols): ND (the inhibitory activity was less than 30% at the maximum concentration evaluated) | aLIZA BMP4 (0.2 nM) % Inh ([2]; SMAD1 phosphorylation by BMP4 stimulus, peptide conc. in assay 0.02, 0.2, 2 nM, class symbols): C (showed less than 30% of inhibitory activity in 0.2 nM-addition zone and showed 30% or more of inhibitory activity in 2 nM-addition zone)

275 (ERV[Phe(4-COOH)]VDR[3Pal(6-Ph)][KCOpipzaa]Y[Hyp][Bip]Y[Phe(4-COOH)][Phe(4-COOH)]SCG-NH2; not fully specified) [compound 275]
aLIZA BMP7 (10 nM) % inh [1, 11]: G (showed less than 30% of inhibitory activity in 100 nM-addition zone and showed 30% or more of inhibitory activity in 300 nM-addition zone) | aLIZA BMP4 (0.2 nM) % inh [2, 4]: B (showed less than 30% of inhibitory activity in 0.02 nM-addition zone and showed 30% or more of inhibitory activity in 0.2 nM-addition zone)

266 (QRVYVDR[3Pal(6-Ph)]SYV[Bip][4Pal][Phe(4-COOH)][Phe(4-COOH)]SCG-NH2; not fully specified) [compound 266]
aLIZA BMP7 (10 nM) % inh [1, 3]: ND (the inhibitory activity was less than 30% at the maximum concentration evaluated) | aLIZA BMP4 (0.2 nM) % inh [2, 4]: C (showed less than 30% of inhibitory activity in 0.2 nM-addition zone and showed 30% or more of inhibitory activity in 2 nM-addition zone)

289 (ERV[Phe(4-COOH)][Gly(4-THP)][KCOpipzaa]R[3Pal(6-Ph)][KCOpipzaa]Y[Hyp][Bip][4Pal][Phe(4-COOH)][Phe(4-COOH)]SCG-NH2; not fully specified (N-terminus, bridges); also: cyclic peptide, ring not given here) [compound 289]
aLIZA BMP7 (10 nM) % inh [1, 11]: ND (the inhibitory activity was less than 30% at the maximum concentration evaluated) | aLIZA BMP4 (0.2 nM) % inh [2, 4]: C (showed less than 30% of inhibitory activity in 0.2 nM-addition zone and showed 30% or more of inhibitory activity in 2 nM-addition zone)

CC(C)[C@@H]1NC(=O)[C@H](Cc2ccc(C(=O)O)cc2)NC(=O)[C@H](C(C)C)NC(=O)[C@H](CCCNC(=N)N)NC(=O)[C@H](CCC(=O)O)NC(=O)CSCC(C(=O)NCC(N)=O)NC(=O)[C@H](CO)NC(=O)[C@H](Cc2ccc(C(=O)O)cc2)NC(=O)[C@H](Cc2ccc(C(=O)O)cc2)NC(=O)[C@H](Cc2ccc(O)cc2)NC(=O)[C@H](Cc2ccc(-c3cccc(F)c3)cc2)NC(=O)[C@@H]2C[C@@H](O)CN2C(=O)[C@H](Cc2ccc(O)cc2)NC(=O)[C@H](CCCCNC(=O)N2CCN(CC(=O)O)CC2)NC(=O)[C@H](Cc2ccc(-c3ccccc3)nc2)NC(=O)[C@H](CCCNC(=N)N)CC(=O)[C@H](CCCCNC(=O)N2CCN(CC(=O)O)CC2)NC1=O (stereo partly drawn) [SEQ ID No. 311, ClAc-E-R-V-F4COO-V-KCOpipzaa-R-3Py6Ph-KCOpipzaa-Y-Hyp-Bph3F-Y-F4COO-F4COO-S-C-G-NH2] (I: [3Pal(6-Ph)]K([CO-Piperazinyl(4-CH2COOH)])Y[Hyp][X9]Y[Phe(4-COOH)][Phe(4-COOH)]S[ξC]G-NH2 / II: ERV[Phe(4-COOH)]V; linker I:10-II:N via X5; linker I:N-II:C via X10)
aLISA BMP7 [1, 12]: C (showed less than 50% of inhibitory activity in 10 nM-addition zone and showed 50% or more of inhibitory activity in 100 nM-addition zone) | aLISA BMP4 [2, 13]: A (showed an inhibitory activity of 50% or more in a zone to which the peptide was added to in an amount of 0.2 nM)

383 (FG[NMeF]GYGDD[Cha]A[NMeF]LHCG-NH2; not fully specified) [compound 383]
aLISA BMP7 (10 nM) % inh [1, 7]: F (showed less than 30% of inhibitory activity in 10 nM-addition zone and showed 30% or more of inhibitory activity in 30 nM-addition zone) | aLISA BMP4 (0.2 nM) % inh [2, 8]: ND (the inhibitory activity was less than 30% at the maximum concentration evaluated)

17 ({CH2CO}-ARVYVDR[Bip]GYP[Bip]Y[Phe(4-COOH)][Phe(4-COOH)]SCG-NH2; thioether N-17; not fully specified) [compound 17]
aLISA BMP7 [1, 12]: C (showed less than 50% of inhibitory activity in 10 nM-addition zone and showed 50% or more of inhibitory activity in 100 nM-addition zone) | aLISA BMP4 [2, 13]: A (showed an inhibitory activity of 50% or more in a zone to which the peptide was added to in an amount of 0.2 nM)
